According to article PMC2629542:

Biological target: Dr hemagglutinin (DraE) adhesin, Dr fimbriae (E. coli)
Assay: SPR

**Q.** For “CEA-CEACAM8 chimera (from UniProt P06731 35-92) (domain or fragment)”, which Kd is on record?
**A.** 14.4 µM

**Q.** With N-CEA D40A (domain or fragment) as the substance, how does the Kd read?
**A.** 48.9 µM

**Q.** With N-CEA F9A (domain or fragment) as the substance, how does the Kd read?
**A.** 18.4 µM

**Q.** With N-CEA F29R (domain or fragment) as the substance, how does the Kd read?
**A.** > 200 µM

**Q.** For N-CEA G51D (domain or fragment), which Kd is on record?
**A.** 12 µM

**Q.** N-CEA L28P (domain or fragment) was tested. Which Kd did it give?
**A.** 6.6 µM

**Q.** How did the Kd turn out when N-CEA Q44R (domain or fragment) was run?
**A.** > 200 µM

**Q.** With N-CEA S32N (domain or fragment) as the substance, how does the Kd read?
**A.** 12.8 µM

**Q.** N-CEA T52N (domain or fragment) was tested. Which Kd did it give?
**A.** 11 µM

**Q.** N-CEA V11A (domain or fragment) was tested. Which Kd did it give?
**A.** 24.9 µM

**Q.** N-CEA V39A (domain or fragment) was tested. Which Kd did it give?
**A.** 9.35 µM

**Q.** N-domain of CEA (domain or fragment) was tested. Which Kd did it give?
**A.** 13.1 µM

**Q.** “N-domain of CEACAM1 (domain or fragment)” was tested. Which Kd did it give?
**A.** 15.3 µM

Biological target: Dr hemagglutinin (DraE) adhesin, Dr fimbriae (E. coli)
Assay: SPR
Remark: another data set of the same source

**Q.** N-domain of CEA (domain or fragment) was tested. Which Kd did it give?
**A.** 13.1 µM
